Values joined by “and” are separate entries in the source; they are usually repeats but may differ in a detail not shown here. Equal entries are not always repeated.
Experiments:
[1] = Stability (aggregate formation by SEC) of unpurified and purified hepcidin in 0.9% saline at 40° C.; type: physicochemical; conditions: for Stability: aggregate formation of the batch; for aggregation at low pH: pH 2.5, 0.9% saline, over 10 days; for aggregate by SEC: pH 5.6, 0.9% saline
Protocol: Aggregation can be measured by several different methods. In some embodiments, aggregation is measured by size exclusion high-performance liquid chromatography (SEC-HPLC). This method allows for the separation and quantification of hepcidin monomer from any aggregates including dimer, trimer and multimers. In other preferred embodiments, aggregation is measured by an isocratic method performed on an HPLC system comprised of a temperature controlled auto-sampler, a binary or quaternary pump, and an ultraviolet detector. For example, in some such embodiments, the mobile phase consists of 0.05% TFA in 50% acetonitrile and water and human hepcidin-25 (SEQ ID NO: 1) is dissolved in of 0.05% TFA to 1 mg/mL concentration. Five microliters of the solution are injected onto a Zenix-C SEC-80 column of 7.8×300 mm in dimension, 80 Å pore size and 3 μm particle size (Sepax Technologies, Newark, Del. 19711). A flow rate of 1 mL/min is used to elute the analyte from the column and deliver to the UV detector set at 214 nm. The entire run time is 13 min. Empower™ chromatography software or equivalent software is used to integrate each chromatography peak and calculate % peak area at each respective retention time.
(§1) In view of the role played by intermolecular disulfide bond formation in aggregate formation, and the contribution of thiol groups to that end, multiple sources of hepcidin-25 were analyzed for thiol using a thiol content assay and evaluated for stability. Commercially available hepcidin was used in these Examples, which while “purified” to contain only hepcidin, contained thiols and aggregates, and thus may be referred to as “unpurified” to distinguish it from the compositions of the invention. […] For the purpose of this experiment the thiol impurity was removed as follows: Thiols were quenched using 1 molar equivalents of […] (NEM). The solution was then purified by tangential flow filtration (TFF) using Millipore Pellicon 2 10 kDa cassettes for aggregate removal and Pall T-Series 1 kDa for ultra-filtration-diafiltration. The starting material was diluted to less than or equal to 0.1 mg/mL prior to processing through the 10 kDa system. The diluent consisted of 15% Acetonitrile/0.05% Trifluoracetic acid (TFA).
The initial unpurified material and the resulting purified material were formulated in 0.9% saline at either pH 2.5 or pH 5.6 and assessed for stability at 40° C. Samples were taken over 10 days and evaluated by SEC.

[2] = Thiol content assay of hepcidin-25 batches; type: physicochemical; conditions: for Average mole thiol/[mole hepcidin]: batches of hepcidin-25 before and after purification, lower quantifiable limit 0.01; for thiol content of sample of FIG. 2: sample used in pH 2.5 / pH 5.6 stability study
Excerpt: In some embodiments, the composition comprises purified hepcidin and is substantially free of thiol (e.g., unreacted, free sulfhydryl-containing cysteines). Thiols can react with the disulfide bridges of hepcidin resulting in disulfide scrambling and potential polymerization of multiple hepcidin molecules to form aggregated hepcidin. Such thiols can come from multiple sources, some of which include thiols left over from synthesis of the hepcidin, incomplete folding of hepcidin and breakage of disulfide bridges within folded hepcidin, improperly folded hepcidin and/or aggregated hepcidin. Thiols may be measured by several methods, which may include a thiol quantification assay kit such as that from Molecular Probes: Thiol and Sulfide Quantification Kit (T-6060). Such a kit uses cysteine as a standard so that thiols are reported as cysteine equivalents. In some such embodiments the thiol content is less than 0.20 mole thiol/mole hepcidin. In some preferred embodiments, the thiol content is less than 0.1 mole thiol/mole hepcidin. In more preferred embodiments, the thiol content is less than 0.05 mole thiol/mole hepcidin. In further preferred embodiments, the thiol content is less than 0.015 mole thiol/mole hepcidin. In the most preferred embodiments, the thiol content is less than 0.01 mole thiol/mole hepcidin.
as §1

[3] = Effect of salt form on aggregate formation; type: physicochemical; conditions: for native pH of solution: when preparing solutions of hepcidin, before pH adjustment; for aggregation when maleic acid is present: pH 4.2, 1 mg/mL maleic acid, continued aggregation then slowed
Protocol: The trifluoroacetate, chloride and acetate salts of hepcidin were prepared and all three salt forms were formulated in 0.9% saline at pH 4.2. The hepcidin concentration was 20 mg/mL with a maleic acid concentration of either 0 mg/mL or 1 mg/mL. Samples were filtered using a 0.2 μm syringe filter and aliquoted into glass screw cap amber vials. The samples were assessed for stability at 5° C. and 25° C. Over the course of 47 days the samples were evaluated by visual inspection, pH and SEC.

[4] = Mechanism of aggregate formation: stability studies and DTT reduction, SEC; type: physicochemical
Excerpt: Hepcidin contains 8 cysteines, forming 4 disulfide bridges, each with the potential to become unstable under certain conditions. […] Significant work was completed to address this degradation pathway.
Briefly, the effect of potential intermolecular disulfide bonding on aggregation was studied by adding a reducing agent to aggregated material to break all disulfide bonds. Hepcidin-25 with an aggregate content of 35% as measured by SEC was used for this study. An aliquot of this material was treated with 20 mM Dithiothreitol (DTT) and samples were evaluated by SEC.

[5] = Initial formulation stability (oxidation) by RP-HPLC; type: physicochemical
Protocol: […] Samples were analyzed by reversed-phase high-performance liquid chromatography (RP-HPLC). […] Samples were evaluated over 4.5 months and analyzed by RP-HPLC. Under all conditions, the rate of oxidation observed was slow.

[6] = Effect of pH 4.2 vs pH 4.8 on aggregate formation; type: physicochemical; conditions: 9% starting aggregate, thiol removed, 0.9% sodium chloride, 5° C. and 25° C., about 50 days
Protocol: Hepcidin-25, with 9% starting aggregate and purified to remove thiol, was dissolved in 0.9% sodium chloride and adjusted to either pH 4.2 or pH 4.8. Samples were filtered using a 0.2 μm syringe filter and aliquoted into glass screw cap amber vials. Samples were assessed for stability at both 5° C. and 25° C. Samples were taken over about 50 days and evaluated by visual inspection, pH and SEC.

serum iron = conditions: cited from earlier work

Vendor 1, Lot 1 purified: hepcidin-25 lot with thiols quenched with NEM and purified by tangential flow filtration
Stability [1]: Stable, very slow
aggregation at low pH ([1]; 40° C.): no aggregation
aggregate by SEC ([1]; after 10 days at 40° C.): about 38%
Average mole thiol/[mole hepcidin] [2]: <0.01 mole thiol/mole hepcidin
thiol content of sample of FIG. 2 [2]: no detectable thiol

Vendor 1, Lot 1: commercially available hepcidin-25 batch containing thiols and aggregates, referred to as unpurified
Stability [1]: Unstable, rapid
aggregation at low pH ([1]; 40° C.): aggregates more slowly
aggregate by SEC ([1]; 40° C., after 24 hours): > 95%
aggregate by SEC ([1]; within time it took to test the material by SEC): 38%
Average mole thiol/[mole hepcidin] [2]: 0.17 mole thiol/mole hepcidin
thiol content of sample of FIG. 2 [2]: 1.7 mole thiol/mole hepcidin

Vendor 1, Lot 2: commercially available hepcidin-25 batch, unpurified
Stability [1]: Unstable, rapid
Average mole thiol/[mole hepcidin] [2]: >0.2 mole thiol/mole hepcidin

Vendor 2, Lot 1: commercially available hepcidin-25 batch, unpurified
Stability [1]: Unstable, slower
Average mole thiol/[mole hepcidin] [2]: 0.03 mole thiol/mole hepcidin

Vendor 2, Lot 2: commercially available hepcidin-25 batch, unpurified; label printed on two lines of Table 2
Stability [1]: Unstable, slower
Average mole thiol/[mole hepcidin] [2]: 0.03 mole thiol/mole hepcidin and 0.02 mole thiol/mole hepcidin

Vendor 3, Lot 1: commercially available hepcidin-25 batch, unpurified
Stability [1]: Unstable, slower
Average mole thiol/[mole hepcidin] [2]: 0.03 mole thiol/mole hepcidin

hepcidin acetate [acetate salt form]
relative stability of salt forms ([3]; 20 mg/mL, 0.9% saline, pH 4.2, 0 or 1 mg/mL maleic acid, 5° C. and 25° C., 47 days): most stable of the three salt forms
native pH of solution [3]: about 5

hepcidin chloride [HCl salt]
aggregation when maleic acid is present ([3]; 20 mg/mL): initial increase in aggregation
native pH of solution [3]: about 2.5

hepcidin trifluoroacetate [TFA]
aggregation when maleic acid is present ([3]; 20 mg/mL): initial increase in aggregation

hepcidin-25
main mode of degradation ([4]; accelerated (40° C.) and real time (5° C.) stability studies): aggregation
aggregation after reduction of disulfide bonds ([4]; material with 35% aggregate treated with 20 mM DTT): aggregation is reversed
rate of oxidation ([5]; 40 mg/mL in saline with or without methionine, 37° C. and 45° C., 4.5 months, all conditions): slow
effect of methionine excipient on oxidation ([5]; 40 mg/mL in saline, methionine ten-fold molar excess, 37° C. and 45° C.): reduced the amount of oxidation even further
primary degradation products observed ([5]; 50, 100 and 150 mg/mL, 5° C. over 4.5 months, RP-HPLC): mono or di-oxidation of the methionine at position 21
effect of pH on stability (aggregate formation) [6]: pH 4.2 being more stable than pH 4.8
safety profile (serum iron; nonclinical and clinical studies): favorable safety profile
duration of iron lowering effects (serum iron; single subcutaneous injection): up to 1 week
